These results are taken from patent publication EP4806514A2 (Lepu Biopharma Co., Ltd., dated 2025).

Assay [1] addresses T1, rhesus CDH17-his (Kactus, Cat. No. CDH-RM117) (rhesus, UniProt A0A1D5R2B4 23-784).
T1 construct: range 23-784; also called rhesus CDH17 protein
T1 sequence: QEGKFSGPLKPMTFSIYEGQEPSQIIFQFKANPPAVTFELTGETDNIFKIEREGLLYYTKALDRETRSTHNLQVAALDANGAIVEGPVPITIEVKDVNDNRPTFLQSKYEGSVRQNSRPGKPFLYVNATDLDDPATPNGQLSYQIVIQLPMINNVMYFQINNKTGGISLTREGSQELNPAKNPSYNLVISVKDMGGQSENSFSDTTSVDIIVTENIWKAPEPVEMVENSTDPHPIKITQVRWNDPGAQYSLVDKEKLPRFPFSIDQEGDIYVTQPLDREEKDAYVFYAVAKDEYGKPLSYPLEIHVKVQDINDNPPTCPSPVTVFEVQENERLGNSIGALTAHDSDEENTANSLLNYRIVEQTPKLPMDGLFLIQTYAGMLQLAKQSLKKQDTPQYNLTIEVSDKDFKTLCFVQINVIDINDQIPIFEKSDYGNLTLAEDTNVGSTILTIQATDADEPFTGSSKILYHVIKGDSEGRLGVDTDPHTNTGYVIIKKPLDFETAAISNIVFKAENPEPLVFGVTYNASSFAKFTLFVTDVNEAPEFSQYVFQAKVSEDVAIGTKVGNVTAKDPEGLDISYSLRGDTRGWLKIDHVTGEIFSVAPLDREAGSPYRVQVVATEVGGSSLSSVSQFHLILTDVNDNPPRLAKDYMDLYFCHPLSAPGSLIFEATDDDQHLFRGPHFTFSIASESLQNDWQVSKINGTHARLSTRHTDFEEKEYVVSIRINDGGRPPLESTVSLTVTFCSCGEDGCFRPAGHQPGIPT
The assay is described as follows: ELISA, rhesus CDH17-his coated at 1 ug/mL. Background: In an ELISA, binding on a coated surface is turned into a signal by an enzyme label.

Assay [2] addresses T2, rhesus CDH17 overexpressed on HEK293 cells (HEK293-rhesus CDH17) (rhesus, UniProt A0A1D5R2B4 23-832).
T2 construct: whole, on cells
T2 sequence: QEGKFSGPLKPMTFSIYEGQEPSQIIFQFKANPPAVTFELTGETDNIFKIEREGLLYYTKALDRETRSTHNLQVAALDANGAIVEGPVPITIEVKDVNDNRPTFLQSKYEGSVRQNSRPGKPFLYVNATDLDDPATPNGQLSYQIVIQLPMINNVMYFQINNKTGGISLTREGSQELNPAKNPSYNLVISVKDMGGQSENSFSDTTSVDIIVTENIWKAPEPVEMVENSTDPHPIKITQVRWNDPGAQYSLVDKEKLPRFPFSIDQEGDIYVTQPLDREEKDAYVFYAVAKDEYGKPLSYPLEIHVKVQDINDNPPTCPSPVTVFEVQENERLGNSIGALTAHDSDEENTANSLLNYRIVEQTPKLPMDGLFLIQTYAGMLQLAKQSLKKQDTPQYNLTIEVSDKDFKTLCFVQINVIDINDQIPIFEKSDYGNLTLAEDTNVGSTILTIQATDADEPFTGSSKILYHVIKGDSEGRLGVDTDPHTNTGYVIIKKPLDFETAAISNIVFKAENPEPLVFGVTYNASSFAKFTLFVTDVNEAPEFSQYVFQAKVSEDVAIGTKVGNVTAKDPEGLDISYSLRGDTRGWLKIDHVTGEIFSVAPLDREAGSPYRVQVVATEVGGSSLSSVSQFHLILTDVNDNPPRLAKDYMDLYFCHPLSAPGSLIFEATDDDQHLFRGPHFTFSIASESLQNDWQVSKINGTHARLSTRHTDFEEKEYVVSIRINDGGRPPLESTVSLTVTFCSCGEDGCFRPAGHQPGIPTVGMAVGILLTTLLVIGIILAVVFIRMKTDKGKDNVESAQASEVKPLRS
The assay is described as follows: flow cytometry, HEK293-rhesus CDH17 cells. (A flow cytometer gives signals particle by particle.)

The target of assay [3] is T3, human CDH10-his protein (Acro bio, Cat. No. CA0-H52H5) (human, UniProt Q9Y6N8 55-613).
T3 construct: Bought; also called human CDH10 protein
T3 sequence (looked up): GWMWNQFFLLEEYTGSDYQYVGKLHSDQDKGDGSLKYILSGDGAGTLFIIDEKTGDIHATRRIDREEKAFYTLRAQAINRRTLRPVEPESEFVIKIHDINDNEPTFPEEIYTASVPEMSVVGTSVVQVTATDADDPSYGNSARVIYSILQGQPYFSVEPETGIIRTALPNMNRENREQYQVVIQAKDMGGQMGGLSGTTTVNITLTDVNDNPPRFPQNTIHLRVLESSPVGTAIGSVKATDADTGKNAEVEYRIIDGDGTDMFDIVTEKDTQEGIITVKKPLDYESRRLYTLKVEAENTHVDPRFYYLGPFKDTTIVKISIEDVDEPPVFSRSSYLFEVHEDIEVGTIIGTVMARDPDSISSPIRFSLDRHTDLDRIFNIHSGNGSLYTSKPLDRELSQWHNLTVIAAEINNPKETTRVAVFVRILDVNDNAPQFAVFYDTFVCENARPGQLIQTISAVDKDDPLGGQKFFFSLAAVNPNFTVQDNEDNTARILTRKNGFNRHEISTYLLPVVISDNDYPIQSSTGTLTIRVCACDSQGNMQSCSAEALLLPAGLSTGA
The assay is described as follows: ELISA, antigen coated at 1 ug/mL.

B1: 29H8D3-z12 (antibody, V domains shown)
VH: QVQLVQSGAEVKKPGASVKVSCKASGYTFTDHTIHWMRQRPGQGLEWIGYIYPRDGYTKYNEKFKDRATLTADTSTSTAYMELRSLRSDDTAVYYCARFYYGYWYFDVWGQGTTVTVSS
VL: DIVMTQSPLSLPVTPGEPASISCRSSKSLLRSNGNTYLYWFLQKPGQSPQVLIYRMSNLASGVPDRFSGSGSGTDFTLKISRVEAEDVGVYYCMQHLEYPFTFGQGTKLEIK
notes: Humanized, human IgG1 constant region; also called 29H8D3-z12 mAb
The term EC50 denotes the concentration at which the effect is half-maximal. For B1, the EC50 in assay [1] amounted to 163 pM; in assay [2], 225 pM. In assay [3], the binding result is given as “no binding (tested: titrated from 50 nM)”.
